Where two headings read alike, the source gives them in different places.

Here are results for three molecules from US20240392003A1 (NUMAB THERAPEUTICS, published 2024).

In assay [1] the target is T1, cynomolgus monkey serum albumin (Molecular Innovations CYSA) (cynomolgus monkey).
T1 construct: also called cSA; CSA
The experiment in a line: SPR; cSA immobilized, pH 5.5. (In general: Surface plasmon resonance follows binding to a sensor surface in real time, without labels.)

The target of assay [2] is T1, cynomolgus monkey serum albumin …. Kind of assay: SPR; cSA immobilized, pH 7.4.
Assay [3] addresses T2, human serum albumin (Sigma-Aldrich A3782) (human, UniProt P02768 25-609).
T2 construct: also called hSA; HSA
The experiment in a line: SPR; hSA immobilized, pH 5.5.

In assay [4] the target is T2, human serum albumin (Sigma-Aldrich …). Kind of assay: SPR; hSA immobilized, pH 7.4.
For assay [5], the target named is T3, mouse serum albumin (Sigma-Aldrich A3559) (mouse, UniProt P07724 25-608).
T3 construct: also called mSA; MSA
The experiment in a line: SPR; mSA immobilized, pH 5.5.

The target of assay [6] is T3, mouse serum albumin (Sigma-Aldrich …). The experiment in a line: SPR; mSA immobilized, pH 7.4.
Assay [7] has the same target. The experiment in a line: SPR; mSA immobilized, pH 5.5; biphasic binding corrected with bulk correction in 1:1 fit.
The target is the same in assay [8]. Kind of assay: SPR; mSA immobilized, pH 7.4; biphasic binding corrected with bulk correction in 1:1 fit.
The target of assay [9] is T4, recombinant human ROR1 protein (Fc-Tag, Acro Biosystems RO1-H5250) (human, UniProt Q01973 30-406).
T4 construct: Bought; also called hROR1; recombinant human ROR1 ECD; not shown: Fc tag
The experiment in a line: SPR; hROR1-Fc immobilized.

Assay [10] addresses T4, recombinant human ROR1 protein (Fc-Tag, …). Kind of assay: SPR; hROR1-Fc immobilized. This is another data set of the same source.
Assay [11] addresses T5, human ROR1 expressed on cells (human, UniProt Q01973 30-937).
T5 construct: whole, on cells; One molecule for cell-surface ROR1 on all cell lines; the cell line is named under assay; also called hROR1; plasma membrane human ROR1
Kind of assay: flow cytometry, MDA-MB-231 cells; mean of three experiments. (In general: Flow cytometry measures light scatter and fluorescence of single cells or particles in a stream.)

The target in assay [12] is T5, human ROR1 expressed on cells. The experiment in a line: flow cytometry, MDA-MB-231 cells; mean of two experiments.

B1: PRO2155 (scFv, V domains shown)
VH: EVQLVESGGGLVQPGGSLRLSCAASGFSLSSYAMNWVRQAPGKGLEWIGHINAGDIAYYATWAKGRFTISRDNSKNTVYLQMNSLRAEDTAVYFCARGAGGFSTGPFKLWGQGTLVTVSS
VL: AFELTQSPSSLSASVGDRVTITCQASESINSRLAWYQQKPGQPPKLLIYDASDLTSGVPSRFSGSGSGTDFTLTISSLQPEDFATYYCQGYGGSSTTTFGGGTKLTVLG
notes: scFv; also called 19-04-A10-sc02; anti-hSA scFv
As a reminder, the Kd is the constant that tells how readily two partners part at equilibrium. The term koff denotes the rate constant with which the complex falls apart. One may read the kon as the second-order rate constant of association. B1: the dissociation constant Kd stood at 2.3 nM in assay [1]; 1.6 nM in assay [2]; 3.3 nM in assay [3]; 2.2 nM in assay [4]; 2.5 nM in assay [7]; 9 nM in assay [8]. The koff stood at 0.0021 s⁻¹ in [1]; 0.00091 s⁻¹ in assay [2]; 0.003 s⁻¹ in [3]; 0.0012 s⁻¹ in assay [4]; 0.0002 s⁻¹ in assay [5]; 0.00029 s⁻¹ in [6]. Also, the kon was determined as 910000 M⁻¹ s⁻¹ in [1]; 580000 M⁻¹ s⁻¹ in assay [2]; 900000 M⁻¹ s⁻¹ in [3]; 550000 M⁻¹ s⁻¹ in [4]; 78000 M⁻¹ s⁻¹ in [5]; 32000 M⁻¹ s⁻¹ in [6].

B2: PRO2060 (scFv, V domains shown)
VH: QSQVVESGGGLVQPGGSLRLSCAVSGFDLSSYAVSWVRQAPGKGLEWIGIIYPRANTYYASWAKGRFTISKDNSKNTVYLQMNSLRAEDTAVYFCARDRYDSGAYLYTTYFNLWGQGTLVTVSS
VL: DVQMTQSPSSLSASVGDRVTITCRASENIYSGLAWYQQKPGKPPKLLIYRASTLASGVSSRFSGSGSGTDFTLTISSLQPEDFATYYCQGGYYSSSSTYIAFGTGTKVTVLG
notes: scFv (Full graft); also called 55-38-D07-sc02
As a reminder, the EC50 is the concentration at which the effect is half-maximal. As for B2, in assay [9], the Kd worked out at 0.416 nM, the koff stood at 9.79e-05 s⁻¹ and the kon turned out to be 250000 M⁻¹ s⁻¹. In addition, in assay [10], the dissociation constant (Kd) is 0.285 nM, the koff came to 9.56e-05 s⁻¹ and the kon was determined as 335000 M⁻¹ s⁻¹. This molecule registered a concentration giving a half-maximal response (EC50) in [11] of 2.93 nM.

B3: PRO2062 (scFv, V domains shown)
VH: QSQLVESGGGLVQPGGSLRLSCAVSGLSLSRNAMSWVRQAPGKGLEWIGIILTSGSTYYASWAKGRFTISKDNSKNTVYLQMNSLRAEDTAVYFCVRGIASSSLKSFWGQGTLVTVSS
VL: AQQLTQSPSSLSASVGDRVTITCQASQNVWNNNYLSWFQQKPGKPPKLLIVTASTLASGVSSRFSGSGSGTDFTLTISSLQPEDFATYYCAGGFSGEIRAFGTGTKVTVLG
notes: scFv (Full graft); also called 55-39-G02-sc02
B3: in assay [9], the equilibrium dissociation constant (Kd) amounted to 0.103 nM, the off-rate (koff) was 0.000455 s⁻¹ and the on-rate (kon) is 4.45e+06 M⁻¹ s⁻¹. Besides, in assay [10], the Kd was determined as 0.0926 nM, the koff turned out to be 0.00049 s⁻¹ and the association rate constant (kon) worked out at 5.29e+06 M⁻¹ s⁻¹. In assay [12], this molecule had an EC50 of 0.26 nM.
